We go through one molecule from patent publication US20250134019A1, “TRIKETONE DIOXYGENASE VARIANTS FOR HERBICIDE TOLERANCE” (Monsanto Technology LLC, priority 2022, published 2025).

Assay [1] has as its system transgenic soybean plants. The experiment in a line: Mesotrione tolerance assay of Os.TDO transgenic soybean events (Construct 32). The format is in vivo. To be noted: for injury rate: sprayed at V1, rated 13 days after treatment. The text has this:
Mesotrione herbicide rate is expressed as grams active ingredient per hectare (g a.i./ha); 1X commercial rate=105 g a.i./ha. […] Plants at V1 growth stage were sprayed with mesotrione (in Callisto®, Syngenta in 1% crop oil) at 1X, 2X, 4X, 8X, and 16X of commercial rate (equivalent to 105, 210, 420, 840, and 1680 g a.i./ha, respectively). Crop injury ratings were taken 13 days after mesotrione treatment.
Os.TDO transgenic event-125 and wild-type control plants were sprayed with 2X of commercial rate of mesotrione (Callisto, 210 g a.i./ha), tembotrione (Laudis, 184 g a.i./ha) and sulcotrione (Sulcogan, 660 g a.i./ha). Each bar represents the mean of injury rating of 8 reps +/−SE. * indicates significant difference vs corresponding control at p<0.01.
The Os.TDO sequence was cloned into a set of binary vectors using standard cloning methods known in the art with its expression driven by different constitutive promoters and different 3′UTRs. Transgenic soybean plants comprising these constructs were developed using an Agrobacterium-mediated transformation system as described in Larue et al. (2020). The copy number of the transgene was determined via a Taqman assay and events with a single copy of the T-DNA insertion were selected for evaluation of mesotrione tolerance. Briefly, R2 and later generation homozygous lines of three soybean transgenic events derived from Construct 32 were selected for a mesotrione tolerance greenhouse assay. Construct 32 contained two expression cassettes between the T-DNA borders: one for expression of Os.TDO and the other for expression of a selectable marker. The Os.TDO cassette utilized the cauliflower mosaic virus (CaMV) 35S promotor and the 5′ UTR of HSP70 from petunia to drive expression of Os.TDO, followed by the 3′ UTR of the nopaline synthase (nos) gene from the T-DNA region of the Ti plasmid of Agrobacterium tumefaciens, which functions to direct polyadenylation of the mRNA. The selectable marker cassette conferring spectinomycin and streptomycin resistance comprises the promoter, intron, and leader sequences from the Arabidopsis thaliana actin 7 gene, the transit peptide region of Arabidopsis thaliana EPSPS, the coding region of the Tn7 adenylyltransferase (AAD (3″)) gene from E. coli, and the 3′ non-translated region from the Agrobacterium tumefaciens nopaline synthase gene.
Each plant was grown in a 3.5″ pot with soybean potting media in a growth chamber under conditions of 28° C./24° C. (light/dark) and a photoperiod of 16 hr light at 700 μE/8 hr dark, and fertilized with Peters general purpose fertilizer. Eight plants at V1 growth stage were sprayed with mesotrione (in Callisto®, Syngenta in 1% crop oil) at 1X, 2X, 4X, 8X, and 16X of commercial rate (equivalent to 105, 210, 420, 840, and 1680 g active ingredient/ha, respectively). Crop injury ratings were taken 13 days after mesotrione treatment.

Assay [2] relates to transgenic soybean plants. The experiment in a line: Response of R0 soybean plants transformed with Round 2 TDO variants to mesotrione. It is filed as in vivo. Conditions: same expression elements; Os.TDO control failed transformation in this experiment. The text has this:
The next set of experiments was focused on determining if the balance between improved enzyme stability could outweigh a reduction in activity observed at optimal temperatures in soybean plants. […] To test this hypothesis, the eight variants from Round 2 biochemical analysis described in the preceding paragraph were transformed into soybean through Agrobacterium-mediated transformation, along with three controls. One of the controls (TDO_9) was a variant from the high-throughput screens that had poor activity. Two other controls were the D08 variant and the Os.TDO. R0 transgenic soybean plants were sprayed with the mesotrione herbicide to screen for herbicide tolerance. […] These included the Os.TDO control, the D08 variant and one Round 2 variant. The plants were scored for percent injury as described in the previous examples.

B1: Os.TDO: TDO from Oryza sativa (HIS1), SEQ ID NO:2, polynucleotide codon optimized for dicot expression (protein, listed as Oryza sativa)
chain: MADESWRAPAIVQELAAAGVEEPPSRYLLREKDRSDVKLVAAELPEPLPVVDLSRLDGAEEATKLRVALQNWGFFLLTNHGVEASLMDSVMNLSREFFNQPIERKQKFSNLIDGKNFQIQGYGTDRVVTQDQILDWSDRLHLRVEPKEEQDLAFWPDHPESFRDVLNKYASGTKRIRDDIIQAMAKLLELDEDYFLDRLNEAPAFARFNYYPPCPRPDLVFGIRPHSDGTLLTILLVDKDVSGLQVQRDGKWSNVEATPHTLLINLGDTMEVMCNGIFRSPVHRVVTNAEKERISLAMLYSVNDEKDIEPAAGLLDENRPARYRKVSVEEFRAGIFGKFSRGERYIDSLRI
Turning to B1, the tolerance to sulcotrione entry in assay [1] (2X commercial rate sulcotrione (Sulcogan, 660 g a.i./ha), event-125) was “provided tolerance”. Moreover, the tolerance to tembotrione result in assay [1] (2X commercial rate tembotrione (Laudis, 184 g a.i./ha), event-125) is reported as “provided tolerance”. The injury rate result in assay [1] (mesotrione 16X (1680 g a.i./ha)) is listed as “below 15%”; in assay [1] (mesotrione at 8X or lower rate (1X=105 g a.i./ha), three transgenic events), “lower than 10%”. Moreover, the tolerance to mesotrione entry in assay [1] (up to 16X of commercial application rate (1X=105 g a.i./ha)) is given as “excellent tolerance”. Also, in assay [2], the “typical injury rating for R0 soybean” value is “high 20% to low 30%”.
